Experimental data as given in article PMC9482650, “Quantitative fragmentomics allow affinity mapping of interactomes” (Nature Communications, 2022).

T1: ARHGAP21, Q5T5U3
T1 sequence (Q5T5U3 45-169, limits assumed, looked up): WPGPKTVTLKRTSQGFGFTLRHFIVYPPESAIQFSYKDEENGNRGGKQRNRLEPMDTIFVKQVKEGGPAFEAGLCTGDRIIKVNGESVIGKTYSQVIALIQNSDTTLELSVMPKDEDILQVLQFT

T2: ARHGEF11, O15085
T2 sequence (O15085 42-136, limits assumed, looked up): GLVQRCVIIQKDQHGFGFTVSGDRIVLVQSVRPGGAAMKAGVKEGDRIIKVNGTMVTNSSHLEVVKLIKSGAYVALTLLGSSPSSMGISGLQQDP

T3: DFNB31_3, Q9P202
T3 sequence (Q9P202 811-907, limits assumed, looked up): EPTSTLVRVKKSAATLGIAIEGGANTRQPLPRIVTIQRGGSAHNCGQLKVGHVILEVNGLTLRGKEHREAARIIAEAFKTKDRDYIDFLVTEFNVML

T4: GRIP1_2, Q9Y3R0
T4 sequence (Q9Y3R0 145-248, limits assumed, looked up): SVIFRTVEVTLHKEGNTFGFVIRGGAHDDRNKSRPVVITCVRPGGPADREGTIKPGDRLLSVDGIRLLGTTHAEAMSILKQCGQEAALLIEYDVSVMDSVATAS

T5: GRIP1_7, Q9Y3R0
T5 sequence (Q9Y3R0 999-1096, limits assumed, looked up): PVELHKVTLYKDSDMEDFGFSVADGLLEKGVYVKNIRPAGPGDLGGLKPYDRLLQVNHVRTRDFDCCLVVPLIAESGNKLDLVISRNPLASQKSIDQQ

T6: LNX2_3, Q8N448
T6 sequence (Q8N448 463-564, limits assumed, looked up): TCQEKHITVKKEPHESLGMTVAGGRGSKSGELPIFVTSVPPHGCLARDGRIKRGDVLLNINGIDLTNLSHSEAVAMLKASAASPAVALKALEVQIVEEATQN

T7: MPDZ_10, O75970
T7 sequence (O75970 1624-1722, limits assumed, looked up): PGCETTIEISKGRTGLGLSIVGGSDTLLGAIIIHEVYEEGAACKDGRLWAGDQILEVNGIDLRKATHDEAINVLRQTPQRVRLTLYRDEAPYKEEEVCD

T8: MPDZ_12, O75970
T8 sequence (O75970 1857-1958, limits assumed, looked up): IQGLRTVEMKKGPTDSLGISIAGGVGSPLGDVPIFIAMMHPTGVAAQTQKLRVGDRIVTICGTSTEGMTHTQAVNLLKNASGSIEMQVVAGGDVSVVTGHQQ

T9: NHERF3_4, Q5T2W1
T9 sequence (Q5T2W1 373-468, limits assumed, looked up): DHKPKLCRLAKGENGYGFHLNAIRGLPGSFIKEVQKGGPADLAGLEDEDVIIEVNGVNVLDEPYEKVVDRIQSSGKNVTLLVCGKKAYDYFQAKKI

T10: PARD3B_1, Q8TEW8
T10 sequence (Q8TEW8 196-299, limits assumed, looked up): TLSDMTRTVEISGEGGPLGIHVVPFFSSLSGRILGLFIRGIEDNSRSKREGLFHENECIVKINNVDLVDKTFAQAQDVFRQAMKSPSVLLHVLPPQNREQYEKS

T11: PCLO, Q9Y6V0
T11 sequence (Q9Y6V0 4491-4600, limits assumed, looked up): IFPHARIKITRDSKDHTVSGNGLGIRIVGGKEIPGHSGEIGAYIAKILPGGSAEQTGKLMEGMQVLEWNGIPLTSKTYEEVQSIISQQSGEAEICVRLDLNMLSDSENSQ

T12: SIPA1L2, Q9P2F8
T12 sequence (Q9P2F8 945-1036, limits assumed, looked up): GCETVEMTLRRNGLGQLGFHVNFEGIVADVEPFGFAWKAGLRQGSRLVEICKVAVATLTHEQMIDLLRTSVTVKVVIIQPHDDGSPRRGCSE

T13: SNTB1, Q13884
T13 sequence (Q13884 107-205, limits assumed, looked up): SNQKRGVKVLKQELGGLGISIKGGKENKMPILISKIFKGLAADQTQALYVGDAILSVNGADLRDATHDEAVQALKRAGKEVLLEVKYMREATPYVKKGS


Legend:
Experiment in all cases: holdup assay
Set-up in all cases: key: below the threshold = too weak to quantify, mostly under pKd 3.1 to 4
Conditions in all cases: plain residues with an end cap or a label only (N-terminal biotin on a linker: ado-ado)
ARHGAP21, Q5T5U3 = target: T1, ARHGAP21, Q5T5U3
ARHGEF11, O15085 = target: T2, ARHGEF11, O15085
DFNB31_3, Q9P202 = target: T3, DFNB31_3, Q9P202
DLG4_2, P78352 = target: DLG4_2, P78352
DLG4_2, P78352, sequence (P78352 155-259): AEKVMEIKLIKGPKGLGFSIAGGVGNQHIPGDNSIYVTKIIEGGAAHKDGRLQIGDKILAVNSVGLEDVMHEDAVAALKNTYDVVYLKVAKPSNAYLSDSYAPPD

FRMPD2_1, Q68DX3 = target: FRMPD2_1, Q68DX3
FRMPD2_1, Q68DX3, sequence (Q68DX3 770-861): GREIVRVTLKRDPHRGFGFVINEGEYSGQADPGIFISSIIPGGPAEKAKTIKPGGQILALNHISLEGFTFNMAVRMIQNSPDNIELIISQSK

GRIP1_2, Q9Y3R0 = target: T4, GRIP1_2, Q9Y3R0
GRIP1_7, Q9Y3R0 = target: T5, GRIP1_7, Q9Y3R0
GRIP2_5, Q9C0E4 = target: GRIP2_5, Q9C0E4
GRIP2_5, Q9C0E4, sequence (Q9C0E4 544-642): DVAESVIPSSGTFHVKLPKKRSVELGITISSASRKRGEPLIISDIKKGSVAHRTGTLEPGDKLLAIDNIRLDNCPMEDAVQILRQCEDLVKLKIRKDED

IL16_3, Q14005 = target: IL16_3, Q14005
IL16_3, Q14005, sequence (Q14005 1107-1207): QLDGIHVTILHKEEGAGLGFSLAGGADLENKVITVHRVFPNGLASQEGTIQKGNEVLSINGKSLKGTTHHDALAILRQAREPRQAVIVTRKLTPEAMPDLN

IL16_4, Q14005 = target: IL16_4, Q14005
IL16_4, Q14005, sequence (Q14005 1229-1329): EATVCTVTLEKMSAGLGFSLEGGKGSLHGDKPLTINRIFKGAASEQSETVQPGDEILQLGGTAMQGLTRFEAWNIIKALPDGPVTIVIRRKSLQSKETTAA

Inadl_3, Q8NI35 = target: Inadl_3, Q8NI35
Inadl_3, Q8NI35, sequence (Q8NI35 359-469): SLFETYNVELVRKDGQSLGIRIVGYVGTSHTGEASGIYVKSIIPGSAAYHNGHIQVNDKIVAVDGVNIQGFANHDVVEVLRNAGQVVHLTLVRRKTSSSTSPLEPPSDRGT

LAP2, Q96RT1 = target: LAP2, Q96RT1
LAP2, Q96RT1, sequence (Q96RT1 other isoform, or with tags, fused parts or gaps): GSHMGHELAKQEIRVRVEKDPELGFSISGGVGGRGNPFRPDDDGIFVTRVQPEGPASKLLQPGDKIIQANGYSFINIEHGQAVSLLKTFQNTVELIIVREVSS

LNX1_3, Q8TBB1 = target: LNX1_3, Q8TBB1
LNX1_3, Q8TBB1, sequence (Q8TBB1 500-596): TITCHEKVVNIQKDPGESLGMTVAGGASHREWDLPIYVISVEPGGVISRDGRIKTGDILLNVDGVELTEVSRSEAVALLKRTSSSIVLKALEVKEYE

LNX2_3, Q8N448 = target: T6, LNX2_3, Q8N448
MAGI2_3, Q86UL8 = target: MAGI2_3, Q86UL8
MAGI2_3, Q86UL8, sequence (Q86UL8 600-682): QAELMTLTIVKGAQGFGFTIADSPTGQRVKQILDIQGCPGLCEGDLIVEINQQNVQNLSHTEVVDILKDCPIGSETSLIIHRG

MAGI2_6, Q86UL8 = target: MAGI2_6, Q86UL8
MAGI2_6, Q86UL8, sequence (Q86UL8 1141-1229): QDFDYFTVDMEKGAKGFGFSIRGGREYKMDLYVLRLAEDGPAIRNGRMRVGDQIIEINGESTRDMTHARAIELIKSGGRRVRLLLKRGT

MAST1, Q9Y2H9 = target: MAST1, Q9Y2H9
MAST1, Q9Y2H9, sequence (Q9Y2H9 962-1065): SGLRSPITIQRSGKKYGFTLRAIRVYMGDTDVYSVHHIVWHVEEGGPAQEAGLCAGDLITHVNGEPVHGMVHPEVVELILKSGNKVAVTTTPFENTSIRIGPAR

MPDZ_10, O75970 = target: T7, MPDZ_10, O75970
MPDZ_12, O75970 = target: T8, MPDZ_12, O75970
NHERF3_4, Q5T2W1 = target: T9, NHERF3_4, Q5T2W1
PARD3B_1, Q8TEW8 = target: T10, PARD3B_1, Q8TEW8
PCLO, Q9Y6V0 = target: T11, PCLO, Q9Y6V0
SIPA1L2, Q9P2F8 = target: T12, SIPA1L2, Q9P2F8
SNTB1, Q13884 = target: T13, SNTB1, Q13884

Binder	pKd (ARHGAP21, Q5T5U3)	pKd (ARHGEF11, O15085)	pKd (DFNB31_3, Q9P202)	pKd (DLG4_2, P78352)	pKd (FRMPD2_1, Q68DX3)	pKd (GRIP1_2, Q9Y3R0)	pKd (GRIP1_7, Q9Y3R0)	pKd (GRIP2_5, Q9C0E4)	pKd (IL16_3, Q14005)	pKd (IL16_4, Q14005)	pKd (Inadl_3, Q8NI35)	pKd (LAP2, Q96RT1)	pKd (LNX1_3, Q8TBB1)	pKd (LNX2_3, Q8N448)	pKd (MAGI2_3, Q86UL8)	pKd (MAGI2_6, Q86UL8)	pKd (MAST1, Q9Y2H9)	pKd (MPDZ_10, O75970)	pKd (MPDZ_12, O75970)	pKd (NHERF3_4, Q5T2W1)	also measured
QSYPSKHDYV [CLDN18, P56856]	3.99	3.81	below the threshold	3.56	below the threshold	3.58	below the threshold	below the threshold	below the threshold	3.78	below the threshold	below the threshold	3.74	below the threshold	3.62	3.82	4	3.64	below the threshold	3.48	pKd (PARD3B_1, Q8TEW8): below the threshold; pKd (PCLO, Q9Y6V0): below the threshold; pKd (SIPA1L2, Q9P2F8): 3.53; pKd (SNTB1, Q13884): below the threshold
REEPDHSTEV [CCRL2, O00421]	4.21	4.77	below the threshold	4.66	below the threshold	3.5	3.56	below the threshold	below the threshold	below the threshold	3.85	4.15	below the threshold	below the threshold	below the threshold	4.71	4.74	3.7	below the threshold	below the threshold	pKd (PARD3B_1, Q8TEW8): below the threshold; pKd (PCLO, Q9Y6V0): below the threshold; pKd (SIPA1L2, Q9P2F8): below the threshold; pKd (SNTB1, Q13884): 4.36
APIAGFSSFV [SDK2, Q58EX2]	4.04	3.72	below the threshold	4.49	below the threshold	below the threshold	below the threshold	below the threshold	below the threshold	below the threshold	3.86	4.17	below the threshold	below the threshold	below the threshold	4.13	below the threshold	below the threshold	4.37	below the threshold	pKd (PARD3B_1, Q8TEW8): 3.75; pKd (PCLO, Q9Y6V0): below the threshold; pKd (SIPA1L2, Q9P2F8): below the threshold; pKd (SNTB1, Q13884): 3.97
RFQQRMQTHV [KIRREL1, Q96J84]	below the threshold	4.19	3.62	4.64	below the threshold	below the threshold	below the threshold	below the threshold	below the threshold	below the threshold	below the threshold	below the threshold	below the threshold	below the threshold	3.75	below the threshold	4.76	below the threshold	below the threshold	below the threshold	pKd (PARD3B_1, Q8TEW8): below the threshold; pKd (PCLO, Q9Y6V0): below the threshold; pKd (SIPA1L2, Q9P2F8): below the threshold; pKd (SNTB1, Q13884): below the threshold
EDPRVEVTQF [SLC22A9, Q8IVM8]	below the threshold	below the threshold	3.84	below the threshold	below the threshold	below the threshold	below the threshold	below the threshold	below the threshold	below the threshold	below the threshold	below the threshold	below the threshold	below the threshold	below the threshold	3.87	4.75	below the threshold	below the threshold	4.58	pKd (PARD3B_1, Q8TEW8): 4.26; pKd (PCLO, Q9Y6V0): below the threshold; pKd (SIPA1L2, Q9P2F8): below the threshold; pKd (SNTB1, Q13884): below the threshold
LAHVKHKEQI [AQP3, Q92482]	3.98	below the threshold	below the threshold	below the threshold	below the threshold	below the threshold	below the threshold	below the threshold	below the threshold	below the threshold	below the threshold	below the threshold	below the threshold	below the threshold	below the threshold	below the threshold	below the threshold	below the threshold	below the threshold	below the threshold	pKd (PARD3B_1, Q8TEW8): below the threshold; pKd (PCLO, Q9Y6V0): below the threshold; pKd (SIPA1L2, Q9P2F8): below the threshold; pKd (SNTB1, Q13884): below the threshold
